Numbering of substitutions follows the chain as printed. In names and notes the source's numbering stands. Several values for one entry are separate records, joined by “and”; a condition that tells them apart may be missing. Equal values may be shown once.

In test [1] the target is human RPTPσ Ig1–3 R227A+R228A (R228A+R229A in human numbering), C-terminal Avitag (human). The experiment in a line: SPR; equilibrium; biotinylated human RPTPσ Ig1–3 (wild type or mutants) immobilized on streptavidin-coated CM5 chips, mouse TrkC LRRIg1 as analyte; 10 mM HEPES pH 7.5, 150 mM NaCl, 0.01% Tween 20, 25 °C.
The target in test [2] is human RPTPσ Ig1–3 WT, C-terminal Avitag, immobilized (human). The description is as above.
The target of test [3] is human RPTPσ Ig1–3 (human).
The target in test [4] is chicken TrkC LRRIg1 2N, C-terminal Avitag, immobilized (chicken, UniProt Q91044 32-302, N163Q | N232Q | N259Q | N267Q | N294Q, biotin on the Avitag (enzymatic)). The experiment in a line: SPR. (In general: Surface plasmon resonance follows binding to a sensor surface in real time, without labels.)
The target in a further test is chicken RPTPσ Ig1–3 (chicken, UniProt F1NWE3 29-316). The experiment in a line: SPR; equilibrium; biotinylated chicken TrkC LRRIg1 variants immobilized on streptavidin-coated CM5 chips, chicken RPTPσ Ig1–3 as analyte; 10 mM HEPES pH 7.5, 150 mM NaCl, 0.01% Tween 20, 25 °C; 1 M MgCl2 regeneration for LRRIg1 2Q. Particulars: both partners purified.
The target of test [5] is T1, mouse TrkC LRRIg1 (soluble) (mouse, UniProt Q6VNS1 32-302).
T1 chain: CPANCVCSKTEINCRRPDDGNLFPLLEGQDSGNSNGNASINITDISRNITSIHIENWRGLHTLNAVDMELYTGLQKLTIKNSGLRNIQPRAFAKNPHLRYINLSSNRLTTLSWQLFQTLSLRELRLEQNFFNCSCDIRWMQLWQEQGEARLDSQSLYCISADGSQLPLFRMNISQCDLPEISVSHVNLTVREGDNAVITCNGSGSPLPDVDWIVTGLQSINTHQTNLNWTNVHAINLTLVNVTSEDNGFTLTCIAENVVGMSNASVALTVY
Description: SPR.

In test [6] the target is T2, mouse TrkC LRRIg1, C-terminal Avitag, immobilized (mouse, UniProt Q6VNS1 32-302, biotin on the Avitag (enzymatic)).
T2 chain: T1 chain
Description: SPR.

Another test addresses T3, mouse NGL-3 Ecto (mouse, UniProt P0C192 39-574, biotin on the Avitag (enzymatic)).
T3 chain: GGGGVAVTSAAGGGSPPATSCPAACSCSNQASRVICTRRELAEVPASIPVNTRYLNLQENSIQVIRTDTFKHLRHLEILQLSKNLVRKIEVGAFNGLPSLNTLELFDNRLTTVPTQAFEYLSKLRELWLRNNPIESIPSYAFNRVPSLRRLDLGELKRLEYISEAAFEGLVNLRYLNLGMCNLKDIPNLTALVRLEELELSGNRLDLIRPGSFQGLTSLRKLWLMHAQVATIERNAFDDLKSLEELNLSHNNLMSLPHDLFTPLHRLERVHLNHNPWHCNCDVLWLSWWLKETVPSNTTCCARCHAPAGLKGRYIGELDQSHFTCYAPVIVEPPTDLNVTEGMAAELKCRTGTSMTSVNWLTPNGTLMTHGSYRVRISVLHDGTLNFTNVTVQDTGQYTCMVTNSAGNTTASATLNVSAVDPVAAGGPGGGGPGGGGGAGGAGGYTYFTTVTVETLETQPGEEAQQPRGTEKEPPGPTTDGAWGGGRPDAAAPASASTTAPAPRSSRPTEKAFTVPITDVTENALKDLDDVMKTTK
Description: SPR.

For test [7], the target named is mouse TrkC LRRIg1, C-terminal Avitag, immobilized (mouse) (UniProt Q6VNS1). Description: SPR; equilibrium; biotinylated mouse TrkC LRRIg1 (wild type or D240A+D242A) immobilized on streptavidin-coated CM5 chips, human RPTP proteins as analytes; 10 mM HEPES pH 7.5, 150 mM NaCl, 0.01% Tween 20, 25 °C; in Fig. 6a also with increasing HS or heparin-dp10.
The target in the next test is T4, mouse TrkC LRRIg1 2Q (Mus musculus).
T4 chain: T1 chain with N37Q, N41Q
Description: SPR.

For orientation: Kd means the concentration at which binding is half-saturated. A lower Kd goes with tighter binding. With “mouse TrkC LRRIg1 (soluble) (from UniProt Q6VNS1 32-302) (domain or fragment)”, the values for the Kd in [1] and in test [2] were 7 µM and 1800 nM, respectively.

Consider “mouse TrkC LRRIg1, C-terminal Avitag, immobilized (from UniProt Q6VNS1 32-302) (domain or fragment)”, for which, in test [3], the induced presynaptic differentiation in rat hippocampal neurons co-cultured with COS-7 cells expressing mouse TrkC TM, with heparin-dp10 (30 μg/ml, ~10 μM) against mock was found to be 2 fold.

B1: chicken RPTPσ Ig1–3, C-terminal Avitag, immobilized (domain or fragment)
chain: ESPPVFIKKPVDQIGVSGGVASFVCQATGDPKPRVTWNKKGKKVNSQRFETIEFDESAGAVLRIQPLRTPRDENIYECVAQNPHGEVTVHAKLTVLREDQLPPGFPNIDMGPQLKVVERTRTATMLCAASGNPDPEITWFKDFLPVDPSTSNGRIKQLRSGGLQIESSEETDQGKYECVASNSAGVRYSSPANLYVRELREVRRVAPRFSILPVSHEIMPGGNVNITCVAVGSPMPYVKWMQGAEDLTPEDDMPVGRNVLELTDVKDSANYTCVAMSSLGVIEAVAQI
modifications: biotin on the Avitag (enzymatic)
B1 registered a dissociation constant Kd in test [4] of 2500 nM.

B2: chicken TrkC LRRIg1cryst, C-terminal Avitag, immobilized (domain or fragment, UniProt Q91044 32-302, looked up)
chain: CPANCLCSKTDINCKKPDDGNLFPLLEGQDSRNITSIHIENWKNLQTLNAVDMELYTGLQRLTIRNSGLRNIQPRAFAKNPHLRYIDLSGNRLTTLSWQLFQTLRLFDLRLERNPFQCSCDIRWIQLWQEKGEANLQSQQLHCMNLDTAVILLRNMNITQCDLPEISVSHVNLTVREGENAVITCQGSGSPLPDVDWTVADLHSINTHQTNLQWTNVHAIQLTLVNVTSEDNGFLLTCIAENVVGMSQASVLLTVY
modifications: biotin on the Avitag (enzymatic)
notes: chicken TrkC LRRIg1, amino acids 32–302 of NCBI NM_205169.1, lacking residues 63–77; not shown: Avitag (BirA recognition site), C-terminal, kept
On to B2, for which, in the test with chicken RPTPσ Ig1–3, binding was characterised by a dissociation constant (Kd) of 4800 nM.

B3: RPTPσ with the meB mini-exon inserted between R225 and V226 (domain or fragment)
chain: EEPPRFIKEPKDQIGVSGGVASFVCQATGDPKPRVTWNKKGKKVNSQRFETIEFDESAGAVLRIQPLRTPRDENVYECVAQNSVGEITVHAKLTVLREDQLPSGFPNIDMGPQLKVVERTRTATMLCAASGNPDPEITWFKDFLPVDPSASNGRIKQLRSGALQIESSEETDQGKYECVATNSAGVRYSSPANLYVRELREVRRVAPRFSILPMSHEIMPGGNVNITCVAVGSPMPYVKWMQGAEDLTPEDDMPVGRNVLELTDVKDSANYTCVAMSSLGVIEAVAQITVKSLPKA
In test [5], B3 displayed a Kd of 4800 nM.

B4: chicken TrkC LRRIg1 2N, C-terminal Avitag, immobilized (domain or fragment, UniProt Q91044 32-302, looked up)
chain: CPANCLCSKTDINCKKPDDGNLFPLLEGQDSGSSNGNTSINITDISRNITSIHIENWKNLQTLNAVDMELYTGLQRLTIRNSGLRNIQPRAFAKNPHLRYIDLSGNRLTTLSWQLFQTLRLFDLRLERNPFQCSCDIRWIQLWQEKGEANLQSQQLHCMNLDTAVILLRNMNITQCDLPEISVSHVNLTVREGENAVITCQGSGSPLPDVDWTVADLHSINTHQTNLQWTNVHAIQLTLVNVTSEDNGFLLTCIAENVVGMSQASVLLTVY
modifications: biotin on the Avitag (enzymatic)
notes: chicken TrkC LRRIg1, amino acids 32–302 of NCBI NM_205169.1, residues 63–77 re-added to LRRIg1cryst; not shown: Avitag (BirA recognition site), C-terminal, kept
In the test with chicken RPTPσ Ig1–3, B4 had a dissociation constant Kd of 216 nM.

B5: chicken TrkC LRRIg1 2Q, C-terminal Avitag, immobilized (domain or fragment, UniProt Q91044 32-302, looked up)
chain: B4 chain with N37Q, N41Q
modifications: biotin on the Avitag (enzymatic)
notes: chicken TrkC LRRIg1, amino acids 32–302 of NCBI NM_205169.1, residues 63–77 re-added with N68Q+N72Q; not shown: Avitag (BirA recognition site), C-terminal, kept
As for B5, in the test with chicken RPTPσ Ig1–3, the affinity, expressed as Kd, was 38 nM.

B6: human RPTPσ Ecto (domain or fragment)
chain: EEPPRFIKEPKDQIGVSGGVASFVCQATGDPKPRVTWNKKGKKVNSQRFETIEFDESAGAVLRIQPLRTPRDENVYECVAQNSVGEITVHAKLTVLREDQLPSGFPNIDMGPQLKVVERTRTATMLCAASGNPDPEITWFKDFLPVDPSASNGRIKQLRSGALQIESSEETDQGKYECVATNSAGVRYSSPANLYVRVRRVAPRFSILPMSHEIMPGGNVNITCVAVGSPMPYVKWMQGAEDLTPEDDMPVGRNVLELTDVKDSANYTCVAMSSLGVIEAVAQITVKSLPKAPGTPMVTENTATSITITWDSGNPDPVSYYVIEYKSKSQDGPYQIKEDITTTRYSIGGLSPNSEYEIWVSAVNSIGQGPPSESVVTRTGEQAPASAPRNVQARMLSATTMIVQWEEPVEPNGLIRGYRVYYTMEPEHPVGNWQKHNVDDSLLTTVGSLLEDETYTVRVLAFTSVGDGPLSDPIQVKTQQGVPGQPMNLRAEARSETSITLSWSPPRQESIIKYELLFREGDHGREVGRTFDPTTSYVVEDLKPNTEYAFRLAARSPQGLGAFTPVVRQRTLQSISPKNFKVKMIMKTSVLLSWEFPDNYNSPTPYKIQYNGLTLDVDGRTTKKLITHLKPHTFYNFVLTNRGSSLGGLQQTVTAWTAFNLLNGKPSVAPKPDADGFIMVYLPDGQSPVPVQSYFIVMVPLRKSRGGQFLTPLGSPEDMDLEELIQDISRLQRRSLRHSRQLEVPRPYIAARFSVLPPTFHPGDQKQYGGFDNRGLEPGHRYVLFVLAVLQKSEPTFAASPFSDPFQLDNPDPQPIVDGEEG
As to B6, the results for the Kd (in test [6]; with mouse NGL-3 Ecto; in test [7]) were 1500 nM, more than 7.3 µM and 516 nM, respectively.

B7: chicken RPTPσ Ig1-3 ΔK (protein)
chain: ESPPVFIKKPVDQIGVSGGVASFVCQATGDPKPRVTWNAAGAAVNSQRFETIEFDESAGAVLRIQPLRTPRDENIYECVAQNPHGEVTVHAKLTVLREDQLPPGFPNIDMGPQLKVVERTRTATMLCAASGNPDPEITWFKDFLPVDPSTSNGRIKQLRSGGLQIESSEETDQGKYECVASNSAGVRYSSPANLYVRVRRVAPRFSILPVSHEIMPGGNVNITCVAVGSPMPYVKWMQGAEDLTPEDDMPVGRNVLELTDVKDSANYTCVAMSSLGVIEAVAQITVKS
B7: the Kd in test [4] was determined as 2600 nM.

B8: human RPTPσ Ig1–3 (domain or fragment)
chain: EEPPRFIKEPKDQIGVSGGVASFVCQATGDPKPRVTWNKKGKKVNSQRFETIEFDESAGAVLRIQPLRTPRDENVYECVAQNSVGEITVHAKLTVLREDQLPSGFPNIDMGPQLKVVERTRTATMLCAASGNPDPEITWFKDFLPVDPSASNGRIKQLRSGALQIESSEETDQGKYECVATNSAGVRYSSPANLYVRVRRVAPRFSILPMSHEIMPGGNVNITCVAVGSPMPYVKWMQGAEDLTPEDDMPVGRNVLELTDVKDSANYTCVAMSSLGVIEAVAQITVKSLPKA
As to B8, the Kd with mouse TrkC LRRIg1 2Q came to 140 nM; in [7], 258 nM.

B9: human RPTPσ Ig1–3 ΔK (K68A+K69A+K71A+K72A) (domain or fragment)
chain: B8 chain with K39A, K40A, K42A, K43A
As for B9, binding in test [5] was characterised by a dissociation constant (Kd) of 2800 nM.

B10: human RPTPσ Ig1–3 WT, C-terminal Avitag, immobilized (domain or fragment)
chain: B8 chain
modifications: biotin on the Avitag (enzymatic)
In the case of B10, the dissociation constant (Kd) in test [5] is 580 nM and 551 nM.

(Values after article PMC4239663, “Structural basis for extracellular cis and trans RPTPσ signal competition in synaptogenesis” (Nature Communications, 2014).)
